{"source": "patent US20220251221A1", "about": "(AGENCY FOR SCIENCE TECHNOLOGY AND RESEARCH, published 2022)", "key": {"monomeric IL-2Rβ": {"biological_target": "T1, monomeric IL-2Rβ (Homo sapiens (Human), UniProt P14784 27-240, limits assumed)", "T1 construct": "Neither the limits nor the species of the construct are stated; also called CD122", "T1 sequence": "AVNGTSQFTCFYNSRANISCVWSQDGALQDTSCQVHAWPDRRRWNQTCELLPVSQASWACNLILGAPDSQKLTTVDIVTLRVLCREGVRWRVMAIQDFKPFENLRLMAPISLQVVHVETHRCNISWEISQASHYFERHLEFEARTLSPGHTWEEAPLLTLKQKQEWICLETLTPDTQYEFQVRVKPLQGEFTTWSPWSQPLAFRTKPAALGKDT", "experiment": "BLI, antibody captured on anti-human Fc biosensor tips, monomeric IL-2Rβ in solution, 1:1 Langmuir fit", "method": "(§1) The affinity of binding of P2C4/P1A3 and P2C4/P1A10 to IL-2Rβ and γc was measured by Bio-Layer Interferometry (BLI).\n(§2) P2C4/P1A3 or P2C4/P1A10 were captured on anti-human Fc biosensor tips, and 5 different concentrations of monomeric IL-2Rβ or γc were allowed to bind to the captured antibodies. Dissociation of the antigen from the immobilised antibodies was performed for 5 min. Binding affinity was calculated by fitting binding curves using the 1:1 Langmuir model."}, "monomeric γc": {"biological_target": "T2, monomeric γc (Homo sapiens (Human), UniProt P31785 23-262, limits assumed)", "T2 construct": "Neither the limits nor the species of the construct are stated; also called CD132; common γ chain", "T2 sequence": "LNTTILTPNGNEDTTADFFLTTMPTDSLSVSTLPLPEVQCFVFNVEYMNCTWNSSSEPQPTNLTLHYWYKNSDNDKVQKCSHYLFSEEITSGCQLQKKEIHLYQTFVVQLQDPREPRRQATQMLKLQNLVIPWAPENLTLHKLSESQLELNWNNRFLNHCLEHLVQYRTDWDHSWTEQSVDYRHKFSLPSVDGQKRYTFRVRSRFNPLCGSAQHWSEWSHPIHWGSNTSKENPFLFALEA", "experiment": "BLI, antibody captured on anti-human Fc biosensor tips, monomeric γc in solution, 1:1 Langmuir fit", "method": "as §1, §2"}, "recombinant IL-2Rβ-Fc": {"biological_target": "T3, recombinant IL-2Rβ-Fc (Homo sapiens (Human), UniProt P14784 27-240)", "T3 construct": "also called CD122-Fc; not shown: Fc part of the fusion not described", "T3 sequence": "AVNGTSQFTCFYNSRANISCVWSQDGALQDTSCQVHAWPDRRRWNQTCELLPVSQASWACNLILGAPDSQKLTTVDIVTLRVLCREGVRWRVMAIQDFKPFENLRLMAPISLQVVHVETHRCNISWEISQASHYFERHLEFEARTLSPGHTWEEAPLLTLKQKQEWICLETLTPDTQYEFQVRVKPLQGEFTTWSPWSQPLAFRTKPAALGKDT", "experiment": "ELISA on coated IL-2Rβ-Fc ('Binding to IL-2RB (Fc)'), biotinylated antibody, streptavidin-HRP, the axis is [Ab]/nM", "method": "(§3) Binding of P2C4/P1A3 to IL-2Rβ or γc was measured by ELISA analysis, using recombinant IL-2Rβ-Fc and γc-Fc coated on maxisorp plates.\n(§4) Biotinylated P2C4/P1A3 was added at various concentrations. Detection of binding was performed using a colorimetric assay using HRP-conjugated streptavidin which converts TMB substrate to a blue solution. The reaction was stopped using hydrochloric acid, and absorbance was measured at 450 nm and 670 nm."}, "recombinant γc-Fc": {"biological_target": "T4, recombinant γc-Fc (Homo sapiens (Human), UniProt P31785 23-262)", "T4 construct": "also called CD132-Fc; not shown: Fc part of the fusion not described", "T4 sequence": "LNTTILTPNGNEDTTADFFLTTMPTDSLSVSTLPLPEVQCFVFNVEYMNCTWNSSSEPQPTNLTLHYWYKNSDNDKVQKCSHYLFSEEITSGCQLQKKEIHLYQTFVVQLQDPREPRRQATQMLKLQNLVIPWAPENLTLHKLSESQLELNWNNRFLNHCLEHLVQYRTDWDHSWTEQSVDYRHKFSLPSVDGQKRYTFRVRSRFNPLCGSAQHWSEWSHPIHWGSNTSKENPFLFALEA", "experiment": "ELISA on coated γc-Fc ('Binding to IL-2RG (Fc)'), biotinylated antibody, streptavidin-HRP, the axis is [Ab]/nM", "method": "as §3, §4"}}, "data": [{"binder": "P2C4/P1A10 bispecific anti-IL-2Rβ/γc antibody, scFv-KiH-Fc format (bispecific antibody) chain 1: not shown chain 2: QVQLQQSGAEVKKPGSSVKVSCKASGGTFSSYAISWVRQAPGQGLEWMGGFDPEDGETIYAQKFQGRVTMTEDTSTDTAYMELSSLRSEDTAVYYCATDLRIPYYYDNPWGQGTLVTVSSGGGGSGGGGSGGGGSEIVLTQSPLSLPVTPGEPASISCRSSQSLLHSNGYNYLNWYLQKPGQSPQLLIYLGSDRASGVPDRFSGSGSGTDFTLKISRVEAEDVGVYYCMQALQTPTTFGGGTKVEIKNSGAGTAAATHTCPPCPAPEAAGGPSVFLFPPKPKDTLMISRTPEVTCVVVDVSHEDPEVKFNWYVDGVEVHNAKTKPREEQYNSTYRVVSVLTVLHQDWLNGKEYKCKVSNKALPAPIEKTISKAKGQPREPQVCTLPPSRDELTKNQVSLSCAVKGFYPSDIAVEWESNGQPENNYKTTPPVLDSDGSFFLVSKLTVDKSRWQQGNVFSCSVMHEALHNHYTQKSLSLSPGK", "values": [{"measurement": "Kd", "setting": "monomeric IL-2Rβ", "result": 28.2, "unit": "nM"}, {"measurement": "koff", "setting": "monomeric IL-2Rβ", "result": 0.0044, "unit": "s⁻¹"}, {"measurement": "kon", "setting": "monomeric IL-2Rβ", "result": 156000, "unit": "M⁻¹ s⁻¹"}, {"measurement": "Kd", "setting": "monomeric γc", "result": 61.8, "unit": "nM"}, {"measurement": "koff", "setting": "monomeric γc", "result": 0.00961, "unit": "s⁻¹"}, {"measurement": "kon", "setting": "monomeric γc", "result": 156000, "unit": "M⁻¹ s⁻¹"}]}, {"binder": "P2C4/P1A3 Crossmab (bispecific antibody, V domains shown, Biotinylated for the ELISA; site not given., also called Fab (P2C4): Fab (P1A3) in CrossMab format; copies: 1 + 1 + 1 + 1) VH 1: EVQLVQSGAEVKKPGSSVKVSCKASGYTFTNYYMHWVRQAPGQGLEWMGAIMPSRGGTSYPQKFQGRVTMTGDTSTSTVYMELSSLRSEDTAVYYCARGEYYYDSSGYYYWGQGTLVTVSS VL 1: QSALTQPASVSGSPGQSIAISCTGTSSDIGHYDFVSWYQQHPGTAPKLIIYDINNRPSGISNRFSGSKSDNMASLTISGLQPEDEADYYCSAYTSSDTLVFGGGTKLTVL VH 2: QVQLQQWGAGLLKPSETLSLTCAVYGGSFSGYYWSWIRQPPGKGLEWIGEINHSGSTNYNPSLKSRATISVDTSKNQFSLKLSSVTAADTAVYYCATSPGGYSGGYFQHWGQGTLVTVSS VL 2: not shown", "values": [{"measurement": "EC50", "setting": "recombinant IL-2Rβ-Fc", "result": 0.772, "unit": "nM"}, {"measurement": "EC50", "setting": "recombinant γc-Fc", "result": 21.2, "unit": "nM"}]}, {"binder": "P2C4_FW2/P1A3_FW2 (bispecific antibody, Biotinylated for the ELISA; site not given., also called scFv (P2C4_FW2): scFv (P1A3_FW2)-KiH-Fc) chain 1: not shown chain 2: EVQLVESGGGLVQPGGSLRLSCAASGGSFSGYYWSWVRQAPGKGLEWVSEINHSGSTNYNPSLKSRFTISRDNSKNTLYLQMNSLRAEDTAVYYCARSPGGYSGGYFQHWGQGTLVTVSSGGGGSGGGGSGGGGSDIQMTQSPSSLSASVGDRVTITCRSSQSLLHSNGYNYLDWYQQKPGKAPKLLIYLGSNRDSGVPSRFSGSGSGTDFTLTISSLQPEDFATYYCMQGTHWPWTFGQGTKVEIKNSGAGTAAATHTCPPCPAPEAAGGPSVFLFPPKPKDTLMISRTPEVTCVVVDVSHEDPEVKFNWYVDGVEVHNAKTKPREEQYNSTYRVVSVLTVLHQDWLNGKEYKCKVSNKALPAPIEKTISKAKGQPREPQVCTLPPSRDELTKNQVSLSCAVKGFYPSDIAVEWESNGQPENNYKTTPPVLDSDGSFFLVSKLTVDKSRWQQGNVFSCSVMHEALHNHYTQKSLSLSPGK", "values": [{"measurement": "EC50", "setting": "recombinant IL-2Rβ-Fc", "result": 1.92, "unit": "nM"}, {"measurement": "EC50", "setting": "recombinant γc-Fc", "result": 48.8, "unit": "nM"}]}]}
